Data set [1] can be described thus: cathepsin B degradation. It is filed as in vitro ADME, bovine. As to conditions: acetate buffer/EDTA/L-cysteine without enzyme; acetate buffer pH 5.5/EDTA/L-cysteine, 37 °C, after 6 h; read-out: compound remaining in buffer in the absence of enzyme. Here is the method:
(§1) Cathepsin B degradation: An aqueous solution of L-cysteine (0.28 M) was diluted 1:10 in acetate buffer/EDTA 1 mM pH 5.5, to achieve a working solution of 28 mM of L-cysteine. This solution was used to dilute cathepsin B from bovine spleen (Sigma Aldrich, C6286) to 1.11 U/mL. The cathepsin B solution was pre-incubated at 37 °C for 15 min and then split into 45 µL aliquots in Eppendorf tubes, with two replicates for each incubation time. 5 µL of substrate solution (50 µM in MeOH/H2O (1:1)) were added to each tube for a final concentration of 5 µM. Tubes corresponding to t0 contained 100 µL of 1% HCOOH in MeOH and they were put in an ice bath to inhibit the reaction. All of the other tubes were incubated at 37 °C in an oscillating thermostatic bath and the reaction was stopped at the following incubation times: 0.25, 0.5, 1, 2, 4, and 6 h, as described for the t0 samples. The samples were then centrifuged for 10 min at 14000 rpm at 4 °C and filtered through regenerated cellulose syringe filters prior to injection in the HPLC-ESI-MS system. Control solutions containing 5 µM substrate in acetate buffer pH 5.5/EDTA 1 mM/L-cysteine 28 mM were also prepared and then incubated up to 6 h at 37 °C in the absence of the enzyme to check the substrate stability under incubation conditions. Substrates and their possible cleavage products (Gly-Pro-Cry-55gly, Cry-55gly, and Cry-55) were quantified via calibration curves that were prepared in acetate buffer/EDTA/L-cysteine in the range 25–5000 nM.

The target of data set [2] is T1, cathepsin B from bovine spleen (Bos taurus, UniProt P07688).
T1 construct: cathepsin B from bovine spleen (Sigma Aldrich, C6286); purchased Sigma Aldrich C6286; host or cells: bovine spleen (tissue-derived)
Kind of data set: cathepsin B degradation. It is filed as in vitro ADME. As to conditions: cathepsin B 1 U/mL. How it is done:
as §1

Data set [3] relates to AtT20/D16v-F2 murine pituitary tumor cells. Kind of data set: in vitro cytotoxicity, MTT assay. It is filed as cell-based. As to conditions: 2 h treatment, wash, further 70 h, MTT; read-out: Cytotoxicity in AtT20 (IC50 in nM). How it is done: In vitro cytotoxicity: To evaluate the cytotoxicity of conjugates and metabolites, AtT20/D16v-F2 murine pituitary tumor cells obtained from American Type Culture Collection (ATCC, Bethesda, MD, USA) were used. Cell viability was determined using the MTT (3-(4,5-dimethyl thiaz ol-2-yl)-2,5-diphenyltetrazolium bromide) assay. Briefly, cells in DMEM supplemented with 10% FBS, 1% L-glutamine, and 1% penicillin/streptomycin were seeded in 96-well culture plates (3000 cells/well) and incubated overnight in a humidified, 37 °C, 5% CO2 atmosphere to allow for adherence. The following day, cells were treated with serial dilutions of each compound starting at 100 nM for free drugs and 1000 nM for each one of the conjugates and incubated as described for 2 h. 0.1% DMSO served as a control. After incubation, the cells were washed once, media replaced, and incubation continued for further 70 h. At the end of treatment, 5 µL of MTT solution (5 mg/mL in deionized H2O, Sigma #M5655) was added to each well and the cells were incubated for another 2 h. Finally, 100 µL of lysis buffer (10% SDS, 10 mM HCl) was added, and the cells were placed in the incubator overnight for the formazan crystal solubilization. Absorbance at 540 nm was measured using a FLUOstar Omega (BMG Labtech) microplate reader and the growth inhibition ratio was calculated. Blank controls detecting cell-free media absorbance were performed in parallel. Three experimental replicates were used. The half-maximal inhibitory concentration values (IC50) were obtained from viability curves while using GraphPad Prism 6. Cell viability was expressed as percentage relative to the respective control conditions.
On the technique in general: Tetrazolium dyes change colour on reduction, which living cells bring about.

Data set [4] has as its target T2, human SSTR2 (Homo sapiens, UniProt P30874).
T2 construct: membrane extract (recombinant CHO-K1-SST2 (NP_001041.1), 25 µL, 0.2 µg); expressed in transfected cells; host or cells: CHO-K1
Briefly: radioligand binding competition assay with SSTR2 membrane extract. The following applies: competition with 3-[125I] iodotyrosyl11 Somatostatin 14, CHO-K1-SST2 membranes; read-out: Binding Affinity (IC50 in nM). How it is done:
The dilution of test compound (50 µL, maximum final DMSO concentration 3%), radioligand 3-[125I] iodotyrosyl11 Somatostatin 14 (Perkin Elmer, NEX389, 25 µL, 0.4 nM), and membrane extract (recombinant CHO-K1-SST2 (NP_001041.1), 25 µL, 0.2 µg) were successively added to a 96-well plate and then incubated at 25 °C for 60 min. It was filtered over GF/B Unifilter plate (Perkin Elmer, 6005177, pre-soaked in 0.5% PEI for 2 h at room temperature) with a Filtermate Harvester (Perkin Elmer). After rinsing the filters six times with 0.5 mL of ice-cold washing buffer (25 mM HEPES pH 7.4, 5 mM MgCl2, 1 mM CaCl2), 50 µL of Microscint 20 (Packard) was added to the filters and the samples were incubated 15 min on an orbital shaker and then counted with a TopCount™ for 1 min/well. The binding affinity was determined in duplicates by plotting the dose-response data to a nonlinear regression with variable slope.

Data set [5] in a line: plasma stability in human plasma. It is filed as in vitro ADME. As to conditions: 37 °C, read-out: Plasma Stability (t1/2 in h) Human (converted). Here is the method: (§2) Plasma stability: The sample preparation and the metabolic analysis of the conjugates was carried out similarly to the previously described method. Shortly, in a 96-well plate each conjugate and the control compound, procaine (3 mM, stock solution in DMSO) in three replicates were diluted with 250 μL of plasma to give a 3 µM concentration and then incubated at 37 °C. At each sample collecting time point, an aliquot of 30 µL was transferred into a 96-deep well plate and the reaction was stopped with 120 µL of acetonitrile containing 0.1% formic acid and 0.4 µg/mL of warfarin as the internal standard (IS). This mixture was centrifuged at 1100 ×g for 30 min at 4 °C and 50 µL of supernatant was transferred into a clean 96 deep-well plate and diluted with 50 µL of 0.1% formic acid in water. The samples were stored at -80 °C until analyses. Stability was determined based on LC-HRMS analysis of the disappearance of the compound as a function of incubation time, while using area ratio (analyte peak area vs internal standard peak area). The elimination constant k is calculated by plotting mean disappearance values on a semi-logarithmic scale and fitting with a best fit linear regression. The half-life (t1/2) expressed in hours is derived using the equation: t1/2 = ln2/(−k).

The nature of data set [6]: plasma stability in murine plasma. It is filed as in vitro ADME. The following applies: mouse, 37 °C, read-out: Plasma Stability (t1/2 in h) Murine (converted). How it is done: as §2

Each structure is given as a SMILES string.

T2 sequence (P30874 whole entry): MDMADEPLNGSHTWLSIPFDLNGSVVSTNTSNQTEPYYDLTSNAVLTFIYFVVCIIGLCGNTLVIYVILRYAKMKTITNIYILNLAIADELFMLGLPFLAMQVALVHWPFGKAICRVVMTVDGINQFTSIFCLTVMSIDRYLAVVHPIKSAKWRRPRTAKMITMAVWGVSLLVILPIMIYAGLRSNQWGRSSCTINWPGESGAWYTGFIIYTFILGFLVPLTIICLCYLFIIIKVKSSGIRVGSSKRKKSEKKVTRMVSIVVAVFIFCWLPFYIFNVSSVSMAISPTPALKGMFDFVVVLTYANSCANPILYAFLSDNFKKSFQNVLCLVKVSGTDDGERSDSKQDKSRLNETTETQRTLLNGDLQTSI

The amount remaining is the share of the starting amount still present when the sample was taken. As usually defined, the IC50 is the concentration needed to halve the response being measured. As to `COc1ccc(C[C@H]2NC(=O)/C=C/C[C@@H]([C@H](C)[C@@H](OC(=O)CNC(=O)[C@@H]3CCCN3C(=O)CNC(=O)[C@H](CCCNC(N)=O)NC(=O)[C@@H](NC(=O)CCOCCOCCOCCOCCn3cc(CCC(=O)N[C@H](Cc4ccccc4)C(=O)N[C@H]4CSSC[C@@H](C(=O)N[C@H](CO)[C@@H](C)O)NC(=O)[C@H]([C@@H](C)O)NC(=O)[C@H](CCCCN)NC(=O)[C@@H](Cc5c[nH]c6ccccc56)NC(=O)[C@H](Cc5ccccc5)NC4=O)nn3)C(C)C)[C@@H](Cl)c3ccccc3)OC(=O)[C@H](CC(C)C)OC(=O)C(C)(C)CNC2=O)cc1Cl` [compound 8], the share remaining at 6 h, 5 µM in data set [1] was determined as 90%. In addition, in data set [2] (5 µM compound, 37 °C), the “cleavage by cathepsin B” value is listed as “readily cleaved”. For the same compound, the “release of cryptophycin-55 glycinate by self-immolation after cleavage” value in data set [2] (up to 6 h) is recorded as “no cryptophycin-55 glycinate (3) was found”. In addition, the figures for the IC50 in data set [3] and in data set [4] were 8.37 nM and 1.3 nM, respectively. Further, the half-life at 3 µM is 24 h in data set [5] and greater than 24 h in data set [6].

The values are drawn from publication PMC6571972 (Pharmaceutics, 2019).
